{
  "source": "patent US20240299575A1",
  "about": "(DENALI THERAPEUTICS, published 2024)",
  "binders": {"B1": {"name": "TV variant S239C (RSV Fab-Fc dimer fusion, CH3C.35.23.2 on the knob chain, LALA, S239C on the hole chain) (antibody, human IgG1, kappa, L234A L235A)", "light": "DIQMTQSPSTLSASVGDRVTITCKCQLSVGYMHWYQQKPGKAPKLLIYDTSKLASGVPSRFSGSGSGTEFTLTISSLQPDDFATYYCFQGSGYPFTFGGGTKLEIKRTVAAPSVFIFPPSDEQLKSGTASVVCLLNNFYPREAKVQWKVDNALQSGNSQESVTEQDSKDSTYSLSSTLTLSKADYEKHKVYACEVTHQGLSSPVTKSFNRGEC", "heavy 1": "QVTLRESGPALVKPTQTLTLTCTFSGFSLSTSGMSVGWIRQPPGKALEWLADIWWDDKKDYNPSLKSRLTISKDTSKNQVVLKVTNMEPADTATYYCARSMITNWYFDVWGAGTTVTVSSASTKGPSVFPLAPSSKSTSGGTAALGCLVKDYFPEPVTVSWNSGALTSGVHTFPAVLQSSGLYSLSSVVTVPSSSLGTQTYICNVNHKPSNTKVDKKVEPKSCDKTHTCPPCPAPEAAGGPSVFLFPPKPKDTLMISRTPEVTCVVVDVSHEDPEVKFNWYVDGVEVHNAKTKPREEQYNSTYRVVSVLTVLHQDWLNGKEYKCKVSNKALPAPIEKTISKAKGQPREPQVYTLPPSRDELTKNQVSLWCLVKGFYPSDIAVEWESYGTEWANYKTTPPVLDSDGSFFLYSKLTVTKEEWQQGFVFSCSVMHEALHNHYTQKSLSLSPGK", "heavy 2": "QVTLRESGPALVKPTQTLTLTCTFSGFSLSTSGMSVGWIRQPPGKALEWLADIWWDDKKDYNPSLKSRLTISKDTSKNQVVLKVTNMEPADTATYYCARSMITNWYFDVWGAGTTVTVSSASTKGPSVFPLAPSSKSTSGGTAALGCLVKDYFPEPVTVSWNSGALTSGVHTFPAVLQSSGLYSLSSVVTVPSSSLGTQTYICNVNHKPSNTKVDKKVEPKSCDKTHTCPPCPAPEAAGGPCVFLFPPKPKDTLMISRTPEVTCVVVDVSHEDPEVKFNWYVDGVEVHNAKTKPREEQYNSTYRVVSVLTVLHQDWLNGKEYKCKVSNKALPAPIEKTISKAKGQPREPQVYTLPPSRDELTKNQVSLSCAVKGFYPSDIAVEWESNGQPENNYKTTPPVLDSDGSFFLVSKLTVDKSRWQQGNVFSCSVMHEALHNHYTQKSLSLSPGK", "notes": "also called S239C (100 nM); S239 variant"}, "B2": {"name": "TV variant S442C (RSV Fab-Fc dimer fusion, CH3C.35.23.2 on the knob chain, S442C on the hole chain) (antibody, human IgG1, kappa, L234A L235A)", "light": "B1 light", "heavy 1": "B1 heavy 1", "heavy 2": "B1 heavy 2 with C242S, S445C", "notes": "also called Conjugation site S442C"}, "B3": {"name": "TV variant 500 nM low affinity (RSV Fab-Fc dimer fusion, CH3C.35.23.4 on the knob chain, S239C on the hole chain) (antibody, human IgG1, kappa, L234A L235A)", "light": "B1 light", "heavy 1": "B1 heavy 1 with A392S, T416S", "heavy 2": "B1 heavy 2", "notes": "also called 500 nM variant"}, "B4": {"name": "TV variant OTR2 (RSV Fab-Fc dimer fusion, CH3C.35.23.2 on the knob chain, S239C on both chains) (antibody, human IgG1, kappa, L234A L235A)", "light": "B1 light", "heavy 1": "B1 heavy 1 with S242C", "heavy 2": "B1 heavy 2", "notes": "also called OTR2 (1.23)"}, "B5": {"name": "TV variant A330C (RSV Fab-Fc dimer fusion, CH3C.35.23.2 on the knob chain, A330C on the hole chain) (antibody, human IgG1, kappa, L234A L235A)", "light": "B1 light", "heavy 1": "B1 heavy 1", "heavy 2": "B1 heavy 2 with C242S, A333C", "notes": "also called Conjugation site A330C"}, "B6": {"name": "TV variant OTR4 (RSV Fab-Fc dimer fusion, CH3C.35.23.2 on the knob chain, S239C and A330C on both chains) (antibody, human IgG1, kappa, L234A L235A)", "light": "B1 light", "heavy 1": "B1 heavy 1 with S242C, A333C", "heavy 2": "B1 heavy 2 with A333C", "notes": "also called OTR4 (2.5)"}, "B7": {"name": "TV variant SansFab (Fc polypeptide dimer without Fab, CH3C.35.23.2 on the knob chain, S239C on the hole chain) (designed binder)", "chain 1": "DKTHTCPPCPAPEAAGGPSVFLFPPKPKDTLMISRTPEVTCVVVDVSHEDPEVKFNWYVDGVEVHNAKTKPREEQYNSTYRVVSVLTVLHQDWLNGKEYKCKVSNKALPAPIEKTISKAKGQPREPQVYTLPPSRDELTKNQVSLWCLVKGFYPSDIAVEWESYGTEWANYKTTPPVLDSDGSFFLYSKLTVTKEEWQQGFVFSCSVMHEALHNHYTQKSLSLSPGK", "chain 2": "DKTHTCPPCPAPEAAGGPCVFLFPPKPKDTLMISRTPEVTCVVVDVSHEDPEVKFNWYVDGVEVHNAKTKPREEQYNSTYRVVSVLTVLHQDWLNGKEYKCKVSNKALPAPIEKTISKAKGQPREPQVYTLPPSRDELTKNQVSLSCAVKGFYPSDIAVEWESNGQPENNYKTTPPVLDSDGSFFLVSKLTVDKSRWQQGNVFSCSVMHEALHNHYTQKSLSLSPGK", "notes": "Fc knob-in-hole heterodimer with a portion of the IgG1 hinge and LALA mutations; also called No Fab"}, "B8": {"name": "TV variant N297G knob (DNP02 Fab-Fc dimer fusion, CH3C.35.23.2 on the knob chain, LALAPG, N297G on the knob chain) (antibody, human IgG1, kappa, L234A L235A, N297G)", "light": "EIVMTQSPATLSLSPGERATLSCSASSSVSYMYWYQQKPGQAPRLLIYDTSNLASGIPARFSGSGSGTDFTLTISSLQPEDFAVYYCQQWSSYPPITFGQGTKVEIKRTVAAPSVFIFPPSDEQLKSGTASVVCLLNNFYPREAKVQWKVDNALQSGNSQESVTEQDSKDSTYSLSSTLTLSKADYEKHKVYACEVTHQGLSSPVTKSFNRGEC", "heavy 1": "QVQLQESGPGLVKPSETLSLTCAVSGYSITSDYAWNWIRQPPGKGLEWIGYMSYSGSTRYNPSLRSRVTISVDTSKNQFSLKLSSVTAADTAVYYCARGWPLAYWGQGTLVTVSSASTKGPSVFPLAPSSKSTSGGTAALGCLVKDYFPEPVTVSWNSGALTSGVHTFPAVLQSSGLYSLSSVVTVPSSSLGTQTYICNVNHKPSNTKVDKKVEPKSCDKTHTCPPCPAPEAAGGPSVFLFPPKPKDTLMISRTPEVTCVVVDVSHEDPEVKFNWYVDGVEVHNAKTKPREEQYGSTYRVVSVLTVLHQDWLNGKEYKCKVSNKALGAPIEKTISKAKGQPREPQVYTLPPSRDELTKNQVSLWCLVKGFYPSDIAVEWESYGTEWANYKTTPPVLDSDGSFFLYSKLTVTKEEWQQGFVFSCSVMHEALHNHYTQKSLSLSPGK", "heavy 2": "QVQLQESGPGLVKPSETLSLTCAVSGYSITSDYAWNWIRQPPGKGLEWIGYMSYSGSTRYNPSLRSRVTISVDTSKNQFSLKLSSVTAADTAVYYCARGWPLAYWGQGTLVTVSSASTKGPSVFPLAPSSKSTSGGTAALGCLVKDYFPEPVTVSWNSGALTSGVHTFPAVLQSSGLYSLSSVVTVPSSSLGTQTYICNVNHKPSNTKVDKKVEPKSCDKTHTCPPCPAPEAAGGPSVFLFPPKPKDTLMISRTPEVTCVVVDVSHEDPEVKFNWYVDGVEVHNAKTKPREEQYNSTYRVVSVLTVLHQDWLNGKEYKCKVSNKALGAPIEKTISKAKGQPREPQVYTLPPSRDELTKNQVSLSCAVKGFYPSDIAVEWESNGQPENNYKTTPPVLDSDGSFFLVSKLTVDKSRWQQGNVFSCSVMHEALHNHYTQKSLSLSPGK", "notes": "Knob-in-hole heterodimer with non-targeting DNP02 Fabs; also called BTGase Knob"}, "B9": {"name": "TV variant T289C (DNP02 Fab-Fc dimer fusion, CH3C.35.23.2 on the knob chain, LALAPG, T289C on the hole chain) (antibody, human IgG1, kappa, L234A L235A)", "light": "B8 light", "heavy 1": "B8 heavy 1 with G295N", "heavy 2": "B8 heavy 2 with T287C", "notes": "Knob-in-hole heterodimer with non-targeting DNP02 Fabs"}, "B10": {"name": "TV variant N297G hole (DNP02 Fab-Fc dimer fusion, CH3C.35.23.2 on the knob chain, LALAPG, N297G on the hole chain) (antibody, human IgG1, kappa, L234A L235A, N297G)", "light": "B8 light", "heavy 1": "B8 heavy 1 with G295N", "heavy 2": "B8 heavy 2 with N295G", "notes": "Knob-in-hole heterodimer with non-targeting DNP02 Fabs; also called BTGase Hole"}, "B11": {"name": "TV variant A114C (DNP02 Fab-Fc dimer fusion, CH3C.35.23.2 on the knob chain, LALAPG, A114C (Kabat) on the hole chain) (antibody, human IgG1, kappa, L234A L235A)", "light": "B8 light", "heavy 1": "B8 heavy 1 with G295N", "heavy 2": "B8 heavy 2 with A116C", "notes": "as for B9"}, "B12": {"name": "TV variant K149C (DNP02 Fab-Fc dimer fusion, CH3C.35.23.2 on the knob chain, LALAPG, K149C on the DNP02 light chain) (antibody, human IgG1, kappa, L234A L235A)", "light": "B8 light with K149C", "heavy 1": "B8 heavy 1 with G295N", "heavy 2": "B8 heavy 2", "notes": "as for B9"}, "B13": {"name": "TV variant N297G OTR2 (DNP02 Fab-Fc dimer fusion, CH3C.35.23.2 on the knob chain, LALAPG, N297G on both chains) (antibody, human IgG1, kappa, L234A L235A, N297G)", "light": "B8 light", "heavy 1": "B8 heavy 1", "heavy 2": "B8 heavy 2 with N295G", "notes": "Knob-in-hole heterodimer with non-targeting DNP02 Fabs; also called BTGase DAR2"}},
  "note": "Numbering of substitutions follows the chain as printed. Names may count otherwise.",
  "data": [
    {"molecular_target": "T1, Human transferrin receptor protein 1 (TFR1) (human, UniProt P02786 89-760, limits assumed)", "T1 construct": "also called huTfR", "T1 sequence (P02786 89-760 limits assumed)": "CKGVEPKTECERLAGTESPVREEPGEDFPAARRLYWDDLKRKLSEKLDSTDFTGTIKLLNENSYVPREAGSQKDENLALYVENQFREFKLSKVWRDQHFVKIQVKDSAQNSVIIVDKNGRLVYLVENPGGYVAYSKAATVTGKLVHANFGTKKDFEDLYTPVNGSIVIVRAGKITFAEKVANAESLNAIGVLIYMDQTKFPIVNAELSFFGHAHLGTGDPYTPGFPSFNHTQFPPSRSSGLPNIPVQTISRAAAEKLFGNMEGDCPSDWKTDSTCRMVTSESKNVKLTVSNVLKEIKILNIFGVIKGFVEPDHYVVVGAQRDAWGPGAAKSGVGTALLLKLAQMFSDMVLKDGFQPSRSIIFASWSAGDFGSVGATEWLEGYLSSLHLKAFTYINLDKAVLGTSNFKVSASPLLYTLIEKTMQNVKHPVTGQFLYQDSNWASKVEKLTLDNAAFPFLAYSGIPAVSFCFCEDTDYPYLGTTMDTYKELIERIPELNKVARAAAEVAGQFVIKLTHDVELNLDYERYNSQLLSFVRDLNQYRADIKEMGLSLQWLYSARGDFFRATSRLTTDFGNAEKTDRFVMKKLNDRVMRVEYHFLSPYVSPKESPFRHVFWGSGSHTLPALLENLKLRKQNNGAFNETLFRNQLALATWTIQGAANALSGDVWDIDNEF", "test": "column 'Affinity' of the construct table; method not stated", "units": {"Kd": "nM"}, "values": [
      {"binder": "B1", "Kd": 100},
      {"binder": "B2", "Kd": 100},
      {"binder": "B3", "Kd": 500},
      {"binder": "B4", "Kd": 100},
      {"binder": "B5", "Kd": 100},
      {"binder": "B6", "Kd": 100},
      {"binder": "B7", "Kd": 100}
    ]},
    {"molecular_target": "T1, Human transferrin receptor protein 1 …", "test": "column 'Affinity' of the construct table; method not stated", "remark": "another data set of the same source", "units": {"Kd": "nM"}, "values": [
      {"binder": "B8", "Kd": 100},
      {"binder": "B9", "Kd": 100},
      {"binder": "B10", "Kd": 100},
      {"binder": "B11", "Kd": 100},
      {"binder": "B12", "Kd": 100},
      {"binder": "B13", "Kd": 100}
    ]}
  ]
}
